Measured values reported in patent US20230303685A1 (ELECTRA THERAPEUTICS, published 2023).

T1: Human SIRPγ
T1 construct: also called human SIRPγ extracellular domain, plate-coated
T1 chain: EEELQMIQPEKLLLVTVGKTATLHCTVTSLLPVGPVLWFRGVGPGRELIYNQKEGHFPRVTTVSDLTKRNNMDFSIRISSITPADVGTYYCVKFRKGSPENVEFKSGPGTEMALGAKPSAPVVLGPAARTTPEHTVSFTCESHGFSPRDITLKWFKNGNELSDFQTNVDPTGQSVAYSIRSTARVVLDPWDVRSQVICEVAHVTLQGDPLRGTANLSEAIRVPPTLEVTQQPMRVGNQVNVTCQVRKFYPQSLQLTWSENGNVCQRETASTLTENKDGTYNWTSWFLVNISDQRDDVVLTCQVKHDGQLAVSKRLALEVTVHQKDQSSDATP


Assays:
[1] = biological target: T2, human SIRPα V1-His monomer (human, UniProt P78324 31-373, limits assumed); assay: BLI (Octet); antibody on anti-mouse IgG capture tip, SIRP-His monomer at 100, 33.3, 11.1 nM, 1:1 fit, mean KD
T2 construct: 'SIRP-His monomer protein' of the Octet assay; also called SIRP-His; not shown: His tag
Procedure, shortened: (§1)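 Rat/mouse-Fc antibodies captured on anti-mouse IgG tips; human-Fc antibodies cleaved with gingipain K to monomeric F(ab′), biotinylated, loaded on streptavidin tips. SIRP-His association then wash-buffer dissociation; 1:1 model fitted per concentration, KD as kdis/kon averaged over concentrations.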

human SIRPβ1-His monomer [2] = biological target: T3, human SIRPβ1-His monomer (human, UniProt O00241 30-371); assay: as above
T3 construct: 'SIRP-His monomer protein' of the Octet assay; also called SIRP-His; not shown: His tag
T3 sequence (O00241 30-371): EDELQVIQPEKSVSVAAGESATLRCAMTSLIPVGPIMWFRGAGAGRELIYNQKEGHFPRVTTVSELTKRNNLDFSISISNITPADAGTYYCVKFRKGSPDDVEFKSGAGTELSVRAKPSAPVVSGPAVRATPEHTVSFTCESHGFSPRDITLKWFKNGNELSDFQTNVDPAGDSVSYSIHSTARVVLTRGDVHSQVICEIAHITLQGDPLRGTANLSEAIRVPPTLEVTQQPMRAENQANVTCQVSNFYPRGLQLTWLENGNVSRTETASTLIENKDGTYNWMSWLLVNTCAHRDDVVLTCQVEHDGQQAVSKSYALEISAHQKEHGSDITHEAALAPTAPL
Procedure, shortened: as §1

human SIRPγ-His monomer [3] = biological target: T4, human SIRPγ-His monomer (human); assay: as above
T4 construct: 'SIRP-His monomer protein' of the Octet assay; also called SIRP-His; not shown: His tag
Procedure, shortened: as §1

[4] = biological target: T5, Human SIRPγ conjugated to an Fc region (human); assay: BLI blocking; 200 nM antibody pre-incubated with 20 nM SIRPγ-Fc, binding to immobilised CD47-His (competitor), % of response of SIRPγ-Fc alone
T5 construct: also called SIRPγ-Fc; SIRP-Fc; not shown: Fc region
T5 sequence (Q9P1W8 whole entry): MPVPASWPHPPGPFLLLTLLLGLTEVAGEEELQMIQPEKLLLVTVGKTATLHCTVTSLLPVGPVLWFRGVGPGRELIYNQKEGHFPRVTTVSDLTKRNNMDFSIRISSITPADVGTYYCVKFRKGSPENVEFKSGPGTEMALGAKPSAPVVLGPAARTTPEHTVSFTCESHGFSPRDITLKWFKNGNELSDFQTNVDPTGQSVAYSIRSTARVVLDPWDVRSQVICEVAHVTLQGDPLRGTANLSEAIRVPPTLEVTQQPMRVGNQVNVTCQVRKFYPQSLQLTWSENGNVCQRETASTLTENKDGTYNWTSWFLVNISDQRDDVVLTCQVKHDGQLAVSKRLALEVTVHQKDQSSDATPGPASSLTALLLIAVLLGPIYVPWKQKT

[5] = biological target: T6, cynomolgus monkey SIRPα extracellular domain, monomeric (cynomolgus monkey, UniProt A0A2K5VYQ9 31-372); assay: ELISA, extracellular domain coated at 2 µg/mL, purified antibody titrated, anti-rat or anti-mouse IgG, chemiluminescence
T6 construct: extracellular domain; also called Cyno SIRPα
Method: (§2) Select SIRP antibodies were purified by Protein G from hybridoma supernatants and analyzed in a titration via ELISA. Briefly, 2 μg/mL of extracellular domain of each of the SIRPs was coated onto high protein-binding plates and blocked. Purified antibodies were added in a titration to the coated plates. The antibodies were detected by an anti-rat IgG or an anti-mouse IgG antibody and a chemiluminescent substrate.

Cynomolgus Monkey SIRPβ1 = biological target: T7, Cynomolgus Monkey SIRPβ1 (Macaca fascicularis); assay: as above
T7 construct: extracellular domain; also called cyno SIRPβ1 extracellular domain, plate-coated
Method: as §2

[6] = biological target: T8, human SIRPα V1 extracellular domain, monomeric (human, UniProt P78324 31-373); assay: as above
T8 construct: also called hSIRPα V1
Method: as §2

Human SIRPγ = biological target: T1, Human SIRPγ; assay: as above
Method: as §2

[7] = biological target: T6, cynomolgus monkey SIRPα extracellular …; assay: SPR (Biacore); antibody captured by anti-IgG on chip, monomeric SIRPα extracellular domain as analyte, 1:1 model
[8] = biological target: T8, human SIRPα V1 extracellular domain, …; assay: as above
[9] = biological target: T2, human SIRPα V1-His monomer; assay: BLI (Octet); biotinylated monomeric F(ab') on streptavidin tip, SIRP-His monomer at 100, 33.3, 11.1 nM, 1:1 fit, mean KD
Method: (§3) Select SIRP antibodies were tested for their affinities to human SIRPα, SIRPβ1, and SIRPγ using a biolayer interferometry (BLI) Octet system (Pall ForteBio). Each SIRP antibody with rat or mouse Fc was immobilized on a biosensor tip by an anti-mouse IgG capture (AMC). Antibodies with human Fc were digested with gingipain K enzyme to yield monomeric F(ab′), biotinylated, then coated onto streptavidin biosensors. […] The biosensors were then exposed to wash buffer to measure off-rate kinetics. The resulting kinetic data were analyzed and fitted using a 1:1 binding model with kₒₙ and kdis fitted separately at each SIRP-His protein concentration. KD affinities were calculated as kdis to kₒₙ ratio at each concentration of SIRP-His and averaged.

human SIRPβ1-His monomer [10] = biological target: T3, human SIRPβ1-His monomer; assay: as above
Method: as §3

human SIRPγ-His monomer [11] = biological target: T4, human SIRPγ-His monomer; assay: as above
Method: as §3

| Kd [1] [nM] | Kd (human SIRPβ1-His monomer [2]) [nM] | Kd (human SIRPγ-His monomer [3]) [nM] | SIRPγ-CD47 Response (%) [4] [%] | EC50 (read off the curve) [5] [µg/mL] | EC50 (read off the curve) (Cynomolgus Monkey SIRPβ1) [µg/mL] | EC50 (read off the curve) [6] [µg/mL] | EC50 (read off the curve) (Human SIRPγ) [µg/mL] | Kd [7] [nM] | Kd [8] [nM] | Kd [9] [nM] | Kd (human SIRPβ1-His monomer [10]) [nM] | Kd (human SIRPγ-His monomer [11]) [nM] | Binder |
| --- | --- | --- | --- | --- | --- | --- | --- | --- | --- | --- | --- | --- | --- |
| 37.1 | 3520 | 973 | 110 | ~0.1 | ~0.2 | ~0.1 | ~0.2 | 581 | 579 | – | – | – | Antibody 1 (antibody, V domains shown, Human variable region, rat IgG2b Fc; from hybridoma) VH: QVQLQESGPGLVKPSGTLSLTCAVSGGSISSSNWWSWVRQPPGKGLEWIGEIYHSGSTNYNPSLKSRVTISVDKSKNQFSLKLSSVTAADTAVYYCARRGIWFGVGPWGQGTLVTVSS VL: DIVMTQSPLSLPVTPGEPASISCRSSQSLLHGNGFNYLDWYLQKPGQSPQLLIYLGSNRASGVPDRFTGSGSGTDFTLKISRVEAEDVGVYYCMQGLQTPRTFGQGTKVEIK |
| – | – | – | – | – | – | – | – | – | – | 14.9 | 555 | 1340 | Antibody 28, monomeric F(ab') (gingipain K digest, biotinylated) (Fab, V domains shown, biotinylated (site not stated)) VH: QVQLQESGPGLVKPSGTLSLTCAVSGGSISSSNWWSWVRQPPGKGLEWIGEIYHSGSTNYNPSLKSRVTISVDKSKNQFSLKLSSVTAADTAVYYCARRGIWFGVGPWGQGTLVTVSS VL: DIVMTQSPLSLPVTPGEPASISCRSSQSLLHGNGFNYLDWYLQKPGQSPQLLIYLGSNRASGVPDRFTGSGSGTDFTLKISRVEAEDVGVYYCMQGLQTPRTFGQGTKVEIK |
